# Experimental data taken from publication doi:10.1101/2025.07.12.664526 (bioRxiv, 2025).
# Where a chain is given by its changes, count along the chain named. In names and notes the source's numbering stands.
# T1: WalR wild type fused to SmBIT or LgBIT (split luciferase) (S. aureus ATCC29213, UniProt Q7A8E1 1-233)
# T1 sequence (looked up): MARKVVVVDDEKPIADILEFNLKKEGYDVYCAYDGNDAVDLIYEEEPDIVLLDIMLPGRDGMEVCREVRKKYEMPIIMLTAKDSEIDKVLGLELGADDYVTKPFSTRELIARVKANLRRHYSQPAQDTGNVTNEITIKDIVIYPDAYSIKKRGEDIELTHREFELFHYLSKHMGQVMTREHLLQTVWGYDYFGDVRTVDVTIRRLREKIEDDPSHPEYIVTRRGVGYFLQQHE
# B1: WalR T101M fused to SmBIT or LgBIT (split luciferase) (natural protein, S. aureus ATCC29213, UniProt Q7A8E1 1-233, looked up)
# chain: T1 sequence (looked up) with T101M
# B2: WalR T101A fused to SmBIT or LgBIT (split luciferase) (natural protein, S. aureus ATCC29213, UniProt Q7A8E1 1-233, looked up)
# chain: T1 sequence (looked up) with T101A
# B3: WalR T101S fused to SmBIT or LgBIT (split luciferase) (natural protein, S. aureus ATCC29213, UniProt Q7A8E1 1-233, looked up)
# chain: T1 sequence (looked up) with T101S
# Legend:
# [1] = molecular target: WalR T101M fused to SmBIT or LgBIT (split luciferase) (S. aureus ATCC29213) (UniProt Q7A8E1); assay: split reporter
# [2] = molecular target: WalR, wild type, full-length, C-terminal 6xHis, phosphorylated by PknB^CYTO with ATP (S. aureus ATCC29213) (UniProt Q7A8E1); assay: SEC-MALS
# [3] = molecular target: T1, WalR wild type fused to SmBIT or LgBIT …; assay: split reporter
# [4] = molecular target: the molecule itself; assay: split reporter
molecule,measurement,setting,value
WalR T101M fused to SmBIT or LgBIT (split luciferase) (from UniProt Q7A8E1 1-233) (natural protein),peak luciferase signal in the wild type background,[1],4340 RLU
same,peak luciferase signal in the ΔpknB background,[1],3650 RLU
same,percent decrease of peak luciferase signal area against wild type WalR/WalR,[1],65.2%
"WalR, wild type, full-length, C-terminal 6xHis, phosphorylated by PknB^CYTO with ATP (from UniProt Q7A8E1 1-233) (natural protein)",stoichiometry N,[2],2
B1,percent decrease of peak area against wild type WalR/WalR,[3],56.5%
B2,percent decrease of peak area against wild type WalR/WalR,[4],56.7%
B3,percent decrease of peak area against wild type WalR/WalR,[4],52.4%
